Data taken from patent publication US10737082B2, “Methods for lymphatic delivery of active agents” (Sorrento Therapeutics, Inc., priority 2015, dated 2020).

Tests used:
[1] = test system: hind limb arthritic rat model; test: Reduction of swelling of inflamed tissues measured by ankle diameter; format: in vivo; details: same 3 mg dosage, administration to the skin compared to subcutaneous injection, FIG. 12
Procedure: Furthermore, there was a 17% reduction in the swelling of these inflamed tissues after administration of the same 3 mg dosage of Etanercept as measured by ankle diameter (FIG. 12).

[2] = Localization of Etanercept to inflamed tissues in hind limb arthritic rat model; format: in vivo; details: administered to the skin compared to subcutaneous delivery, FIG. 11A and B
[3] = In vivo near infrared imaging of lymphatic delivery of fluorescently tagged Etanercept after needle array administration to the skin; design: species or system rat; details: needle array device placed dorsally on rats, FIG. 8 and 9
Procedure: The ability to deliver the protein therapeutic Etanercept directly to the lymphatic system via administration to the skin was tested. Etanercept was fluorescently tagged for in vivo visualization using near infrared light as previous described, see Sevick-Muraca et al., J. Clin Invest., 124 (3), 905-914 (2014), which is incorporated by reference herein for its teachings thereof. Etanercept was administered to the skin of rats by placing a delivery device comprising an array of needles dorsally on the rats.

[4] = Biodistribution of Etanercept across multiple tissue types following delivery to the skin; format: in vivo, rat; details: delivery to the skin compared to traditional i.v., s.c., or i.d. methods, FIG. 10
Text: The biodistribution of Etanercept across multiple tissues types following delivery was investigated.

[5] = Rate of blood serum absorption of Etanercept after delivery to the skin; format: in vivo; details: administration to the skin compared with i.v., s.c., or i.d. methods, FIG. 13

Etanercept
reduction in the swelling of inflamed tissues (ankle diameter) [1]: 17%
levels localized to inflamed tissues [2]: higher levels
lymphatic uptake and distribution after administration to the skin [3]: uptake by the lymphatic vasculature and subsequent distribution to primary and secondary lymph node tissues
levels within the axillary and inguinal lymph nodes [4]: much higher levels
blood serum absorption rate [5]: approximately the same
